These results are taken from PMC7505563.

The data set concerns the target T1, MatP, tag cleaved (Escherichia coli, UniProt P0A8N0 1-150).
T1 sequence: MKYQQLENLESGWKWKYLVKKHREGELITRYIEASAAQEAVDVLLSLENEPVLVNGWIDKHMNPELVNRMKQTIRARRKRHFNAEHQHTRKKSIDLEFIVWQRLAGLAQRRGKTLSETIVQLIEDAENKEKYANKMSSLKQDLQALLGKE
Description: crystal structure.

B1: matS 19mer (dsDNA)
DNA 1: TTCGTGACATTGTCACGAA
DNA 2: TTCGTGACAATGTCACGAA
For B1, the binding result is on record as “binds”.
